Results taken from patent publication US11156615B2 (priority 2015, dated 2021).

What was measured:
[1] = Glucose-dependent fluorescence emission intensity spectra of conjugates (Nanodrop3300); assay type: biochemical; settings: for Type of fluorescence response to glucose: Nanodrop3300
Excerpt: Semi-synthetic FRSs were engineered by site-specifically attaching thiol-reactive, environmentally sensitive fluorophores that respond to ligand-mediated conformational changes. Identification of FRS candidates that are useful for sensing applications comprises three steps: • 1. Cysteine scan. Mutant glucose-binding proteins containing single cysteines are constructed for site-specific attachment of thiol-reactive fluorophores. […] Candidate positions fall into three classes: endosteric, replacing a residue that contacts the ligand directly; peristeric, located at the rim of the binding site; allosteric (Marvin et al. 1997 Proc Natl Acad Sci USA, 94, 4366-71; Marvin 1998 J Am Chem Soc, 120, 7-11), located outside the binding site at sites that undergo local structural changes in concert with the hinge-bending motion. • 2. Fluorophore screening. Thiol-reactive, environmentally sensitive fluorophores are attached to each cysteine mutant prepared in step 1. • 3. Evaluation of the glucose-mediated change of all the fluorescent conjugates prepared in step 2. Responses to ligand binding in which there is both a change in fluorescence emission intensity and spectral shape was essential for chemometric applications, because such changes enable ratiometric measurements. Changes in spectral shape typically are accompanied by a shift in the wavelength of the emission intensity maxima. Three classes of fluorescent responses are possible: • i. No response. • ii. Monochromatic response (emission intensity increases or decreases without a change in spectral shape) • iii.

[2] = Glucose binding: isothermal fluorescence titrations, ratiometric (appKd) and monochromatic (trueKd) fits; settings: Acrylodan conjugate, room temperature
Excerpt: 2 For a single glucose-binding site, the fractional saturation is given by
[formula] where ^apoIλ2 and ^satIλ2 are the emission intensities of the monochromatic signal at wavelength λ2 of the ligand-free and ligand-bound protein, respectively.

[3] = Thermostability: mid-point thermal denaturation temperature (Tm) from temperature-dependent fluorescence (Roche LightCycler); assay type: physicochemical; settings: Acrylodan conjugate; apo-protein
Excerpt: Protein (un)folding is monitored by binding of SYPRO to the unfolded state as a function of temperature. Fluorescence intensity increases upon binding of SYPRO by the unfolded state.
Panels A-C: ttGBP182C.2.0-Imm0; Panels D-F: ttGBP182C.2.0-Imm1 (see FIG. 13). (A) Solution (Tm=347.6K). (B) Immobilized on Nickel-nitriloacetic acid (Ni-NTA) beads (Tm=346.7K). (C) Reconstituted, desiccated Ni-NTA beads (Tm=347.6K). (D) Fluorescence response of ttGGBP5.2 Imm1 immobilized on NHS-functionalized agarose beads. Data was collected on a Roche LightCycler real-time PCS instrument, recording emission intensities at 488 nm and 510 nm as a function of temperature in a 384-well microtiter plate. […] Temperature melts of twelve different wells. Apo protein thermostability as reported by the denaturation mid-point temperature is 349 K, similar to the protein free in solution. […] (F) Representative Langmuir ligand-binding curve extracted from the three-dimensional data.
Temperatures were advanced in 1K steps. […] Under these experimental photobleaching was not observed.

[4] = Galactose binding: isothermal fluorescence titrations of conjugates; settings: Acrylodan conjugate; for Kd: read-out: Galactose trueKd, monochromatic titration curves, room temperature; for S, selectivity = trueKd(galactose)/trueKd(glucose): S > 1, selective for glucose
[5] = read-out: Glucose appKd, dichromatic ratiometry
[6] = read-out: Glucose trueKd, monochromatic titration curves

Row | direction of emission wavelength shift upon glucose binding ([1]; isochromic / hypsochromic / bathochromic) | Kd [2, 5] | Kd [2, 6] | Kd [4] | S, selectivity = trueKd(galactose)/trueKd(glucose) [4] | Molecule | Type of fluorescence response to glucose ([1]; Acrylodan conjugate of ttGGBP or ecGGBP (Ec) cysteine mutant) | Type of fluorescence response to glucose ([1]; Acrylodan conjugate of ttGGBP.17C mutant) | apoTm [3]
1 |  |  |  |  |  | W183C (Ec) | r (b) (r (b), ratiometric (bathochromic shift)) |  | 
2 | bathochromic |  |  |  |  | ecGGBP W183C⋅Acrylodan: Acrylodan attached to W183C mutant of E. coli GGBP (SEQ ID NO: 32) |  |  | 
3 |  | 0.2 mM | 0.2 mM |  |  | ttGGBP17C.9: affinity-tuning mutant, 17C background, SEQ ID NO: 74 (protein, ttGGBP17C.9 (affinity-tuning mutant, 17C background (Table 6) with signal peptide replaced with M and GGSHHHHHH at C-terminus)) MKQLNIGVAIYKFDDSCMTGVRNAMTAEAQGKAKLNMVDSQNSQPTQNDQVDLFITKKMNALAINPVDRTAAGTIIDKAKQANIPVVFFNREPLPEDMKKWDKVYYVGAKAEQSGILQGQIMADYWKAHPEADKNHDGVMQYVMLMGQPGHQDAILRTQYSIQTVKDAGIKVQELAKDYANWDRVTAHDKMAAWLSSFGDKIEAVFANNDDMALGAIEALKSAGYFTGNKYIPVVGVDATAPGIQAIKDGTLLGTVLNDAKNQAKATFNIAYELAQGITPTKDNIGYDITDGKYVWIPYKKITKDNISDAEQGGSHHHHHH |  | r(h) (r(h), ratiometric (hypsochromic shift)) | 
4 |  |  | 0.9 mM | 3.1 mM |  | ttGGBP182C.3: affinity-tuning mutant, 182C background, SEQ ID NO: 97 (protein, ttGGBP182C.3 (affinity-tuning mutant, 182C background (Table 6) with signal peptide replaced with M and GGSHHHHHH at C-terminus)) MKQLNIGVAIYKFDDTFMTGVRNAMTAEAQGKAKLNMVDSQNSQPTQNDQVDLFITKKMNALAINPVDRTAAGTIIDKAKQANIPVVFFNKEPLPEDMKKWDKVYYVGAKAEQSGILQGQIMADYWKAHPEADKNHDGVMQYVMLMGQPGHQDAILRTQYSIQTVKDAGIKVQELAKDYANCDRVTAHDKMAAWLSSFGDKIEAVFANNDDMALGAIEALKSAGYFTGNKYIPVVGVDATAPGIQAIKDGTLLGTVLNDAKNQAKATFNIAYELAQGITPTKDNIGYDITDGKYVWIPYKKITKDNISDAEQGGSHHHHHH |  |  | 346 K
5 |  | 7.5 mM | 8.8 mM | 7.4 mM | 0.8 | ttGGBP182C.5: affinity-tuning mutant, 182C background, SEQ ID NO: 99 (protein, ttGGBP182C.5 (affinity-tuning mutant, 182C background (Table 6) with signal peptide replaced with M and GGSHHHHHH at C-terminus)) MKQLNIGVAIYKFDDTFMTGVRNAMTAEAQGKAKLNMVDSQNSQPTQNDQVDLFITKKMNALAINPVDPTAAGTIIDKAKQANIPVVFFNREPLPEDMKKWDKVYYVGAKAEQSGILQGQIMADYWKAHPEADKNHDGVMQYVMLMGQPGHPDAILRTQYSIQTVKDAGIKVQELAKDYANCDRVTAHDKMAAWLSSFGDKIEAVFANNDDMALGAIEALKSAGYFTGNKYIPVVGVDATAPGIQAIKDGTLLGTVLNDAKNQAKATFNIAYELAQGITPTKDNIGYDITDGKYVWIPYKKITKDNISDAEQGGSHHHHHH |  |  | 349 K
6 |  | 75.1 mM | 76.4 mM |  | 3.7 | ttGGBP182C.9: affinity-tuning mutant, 182C background, SEQ ID NO: 103 (protein, ttGGBP182C.9 (affinity-tuning mutant, 182C background (Table 6) with signal peptide replaced with M and GGSHHHHHH at C-terminus)) MKQLNIGVAIYKFDNTFMTGVRNAMTAEAQGKAKLNMVDSQNSQPTQNDQVDLFITKKMNALAINPVDRTAAGTIIDKAKQANIPVVFFNREPLPEDMKKWDKVYYVGAKAEQSGILQGQIMADYWKAHPEADKNHDGVMQYVMLMGQPGHQDAILRTQYSIQTVKDAGIKVQELAKDYANCDRVTAHDKMAAWLSSFGDKIEAVFANNDDMALGAIEALKSAGYFTGNKYIPVVGVDATAPGIQAIKDGTLLGTVLNDAKNQAKATFNIAYELAQGITPTKDNIGYDITDGKYVWIPYKKITKDNISDAEQGGSHHHHHH |  |  | 343 K
7 |  | 28.7 mM | 44.2 mM |  | 5.8 | ttGGBP182C.8: affinity-tuning mutant, 182C background, SEQ ID NO: 102 (protein, ttGGBP182C.8 (affinity-tuning mutant, 182C background (Table 6) with signal peptide replaced with M and GGSHHHHHH at C-terminus)) MKQLNIGVAIYKFDDTFMTGVRNAMTAEAQGKAKLNMVDSQNSQPTQNDQVDLFITKKMNALAINPVDRTAAGTIIDKAKQANIPVVFFNKEPLPEDMKKWDKVYYVGAKAEQSGILQGQIMADYWKAHPEADKNHDGVMQYVMLMGKPGHQDAILRTQYSIQTVKDAGIKVQELAKDYANCDRVTAHDKMAAWLSSFGDKIEAVFANNDDMALGAIEALKSAGYFTGNKYIPVVGVDATAPGIQAIKDGTLLGTVLNDAKNQAKATFNIAYELAQGITPTKDNIGYDITDGKYVWIPYKKITKDNISDAEQGGSHHHHHH |  |  | 346 K
8 |  | 0.6 mM | 0.8 mM | 6.5 mM | 8.1 | ttGGBP182C.4: affinity-tuning mutant, 182C background, SEQ ID NO: 98 (protein, ttGGBP182C.4 (affinity-tuning mutant, 182C background (Table 6) with signal peptide replaced with M and GGSHHHHHH at C-terminus)) MKQLNIGVAIYKFDDTFMTGVRNAMTAEAQGKAKLNMVDSQNSQPTQNDQVDLFITKKMNALAINPVDRTAAGTIIDKAKQANIPVVFFNREPLPEDMKKWDKVYYVGAKAEQSGILQGQIMADYWKAHPEADKNHDGVMQYVMLMGEPGHQDAILRTQYSIQTVKDAGIKVQELAKDYANCDRVTAHDKMAAWLSSFGDKIEAVFANNDDMALGAIEALKSAGYFTGNKYIPVVGVDATAPGIQAIKDGTLLGTVLNDAKNQAKATFNIAYELAQGITPTKDNIGYDITDGKYVWIPYKKITKDNISDAEQGGSHHHHHH |  |  | 347 K
9 |  | 21.6 mM | 27.6 mM | 81 mM | 2.9 | ttGGBP182C.6: affinity-tuning mutant, 182C background, SEQ ID NO: 100 (protein, ttGGBP182C.6 (affinity-tuning mutant, 182C background (Table 6) with signal peptide replaced with M and GGSHHHHHH at C-terminus)) MKQLNIGVAIYKFDDNFMTGVRNAMTAEAQGKAKLNMVDSQNSQPTQNDQVDLFITKKMNALAINPVDRTAAGTIIDKAKQANIPVVFFNREPLPEDMKKWDKVYYVGAKAEQSGILQGQIMADYWKAHPEADKNHDGVMQYVMLMGQPGHQDAILRTQYSIQTVKDAGIKVQELAKDYANCDRVTAHDKMAAWLSSFGDKIEAVFANNDAMALGAIEALKSAGYFTGNKYIPVVGVDATAPGIQAIKDGTLLGTVLNDAKNQAKATFNIAYELAQGITPTKDNIGYDITDGKYVWIPYKKITKDNISDAEQGGSHHHHHH |  |  | 345 K
